The values that follow come from article PMC4113718.

The assay addresses CXC chemokine receptor (CXCR) 4 on THP-1 cells (human (endogenous in THP-1)) (UniProt P61073).

Sequence of CXC chemokine receptor (CXCR) 4 on THP-1 cells (human (endogenous in THP-1)) (P61073 whole entry): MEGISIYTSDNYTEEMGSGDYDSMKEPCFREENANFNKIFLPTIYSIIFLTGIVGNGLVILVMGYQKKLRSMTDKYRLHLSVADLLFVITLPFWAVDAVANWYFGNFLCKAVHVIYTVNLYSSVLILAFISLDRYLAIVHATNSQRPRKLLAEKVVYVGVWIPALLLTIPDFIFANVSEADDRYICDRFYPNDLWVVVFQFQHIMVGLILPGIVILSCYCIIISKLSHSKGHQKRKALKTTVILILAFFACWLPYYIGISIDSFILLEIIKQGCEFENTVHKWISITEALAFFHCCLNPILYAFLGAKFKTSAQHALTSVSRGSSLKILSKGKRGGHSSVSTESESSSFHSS

Turning to “Ub(1–74)NN (from UniProt P0CG47 1-76) (ligand)”, the LogIC50 (pM), reduction of cAMP levels in forskolin-stimulated THP-1 cells was 2.3 log(pM) and the bottom plateau (%), reduction of cAMP levels in forskolin-stimulated THP-1 cells stood at 54.1%.

Substance “Ub(1–74)RR (from UniProt P0CG47 1-76) (ligand)” came in with a bottom plateau (%), reduction of cAMP levels in forskolin-stimulated THP-1 cells of 42.8%.

In turn, “Ub(1–74)VV (from UniProt P0CG47 1-76) (ligand)” came in with a bottom plateau (%), reduction of cAMP levels in forskolin-stimulated THP-1 cells of 46.7%.
